The results in this text go back to PMC11098746 (2024).

This test deals with Circumsporozoite protein (CSP) (Plasmodium falciparum (isolate 3D7), UniProt Q7K740). In words: AVEXIS screen signal:noise (double-corrected).
Circumsporozoite protein (CSP), sequence (Q7K740 19-374): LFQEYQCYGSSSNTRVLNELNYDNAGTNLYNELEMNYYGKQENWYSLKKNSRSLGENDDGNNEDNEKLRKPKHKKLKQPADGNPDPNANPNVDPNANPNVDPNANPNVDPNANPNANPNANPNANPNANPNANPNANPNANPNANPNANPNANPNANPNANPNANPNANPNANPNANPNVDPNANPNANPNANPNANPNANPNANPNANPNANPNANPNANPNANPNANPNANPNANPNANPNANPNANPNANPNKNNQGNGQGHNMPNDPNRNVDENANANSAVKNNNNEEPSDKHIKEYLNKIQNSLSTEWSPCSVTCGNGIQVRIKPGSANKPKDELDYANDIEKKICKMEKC

B1: ADP338 (protein)
chain: MAPRAARAPATLLLALGAVLWPAAGAWELTILHTNDVHSRLEQTSEDSSKCVNASRCMGGVARLFTKVQQIRRAEPNVLLLDAGDQYQGTIWFTVYKGAEVAHFMNALRYDAMALGNHEFDNGVEGLIEPLLKEAKFPILSANIKAKGPLASQISGLYLPYKVLPVGDEVVGIVGYTSKETPFLSNPGTNLVFEDEITALQPEVDKLKTLNVNKIIALGHSGFEMDKLIAQKVRGVDVVVGGHSNTFLYTGNPPSKEVPAGKYPFIVTSDDGRKVPVVQAYAFGKYLGYLKIEFDERGNVISSHGNPILLNSSIPEDPSIKADINKWRIKLDNYSTQELGKTIVYLDGSSQSCRFRECNMGNLICDAMINNNLRHTDEMFWNHVSMCILNGGGIRSPIDERNNGTITWENLAAVLPFGGTFDLVQLKGSTLKKAFEHSVHRYGQSTGEFLQVGGIHVVYDLSRKPGDRVVKLDVLCTKCRVPSYDPLKMDEVYKVILPNFLANGGDGFQMIKDELLRHDSGDQDINVVSTYISKMKVIYPAVEGRIKFSTGS
modifications: bait human Fc-tagged dimer
As to B1, the binding score worked out at 1.27.

B2: ADP351 (protein)
chain: MARRRGSPGMGVHVGAALGALWFCLTGALEVQVPEDPVVALVGTDATLCCSFSPEPGFSLAQLNLIWQLTDTKQLVHSFAEGQDQGSAYANRTALFPDLLAQGNASLRLQRVRVADEGSFTCFVSIRDFGSAAVSLQVAAPYSKPSMTLEPNKDLRPGDTVTITCSSYQGYPEAEVFWQDGQGVPLTGNVTTSQMANEQGLFDVHSILRVVLGANGTYSCLVRNPVLQQDAHSSVTITPQRSPTGAVEVQVPEDPVVALVGTDATLRCSFSPEPGFSLAQLNLIWQLTDTKQLVHSFTEGRDQGSAYANRTALFPDLLAQGNASLRLQRVRVADEGSFTCFVSIRDFGSAAVSLQVAAPYSKPSMTLEPNKDLRPGDTVTITCSSYRGYPEAEVFWQDGQGVPLTGNVTTSQMANEQGLFDVHSVLRVVLGANGTYSCLVRNPVLQQDAHGSVTITGQPMTFPP
modifications: bait human Fc-tagged dimer
Molecule B2 came in with a binding score of 1.23.

B3: ADP389 (protein)
chain: PSSLSQEQSEQDAIYQNLTQLKAAVGELSEKSKLQEIYQELTQLKAAVGELPEKSKLQEIYQELTRLKAAVGELPEKSKLQEIYQELTRLKAAVGELPEKSKLQEIYQELTRLKAAVGELPEKSKLQEIYQELTELKAAVGELPEKSKLQEIYQELTQLKAAVGELPDQSKQQQIYQELTDLKTAFERLCRHCPKDWTFFQGNCYFMSNSQRNWHDSVTACQEVRAQLVVIKTAEEQNFLQLQTSRSNRFSWMGLSDLNQEGTWQWVDGSPLSPSFQRYWNSGEPNNSGNEDCAEFSGSGWNDNRCDVDNYWICKKPAACFRDE
modifications: bait human Fc-tagged dimer
In turn, B3 showed a binding score of 0.72.

B4: ADP344 (protein)
chain: MAWSFFRVVAMLFIFLVVVEVNSEFRIQVRDYNTKNGTIKWHSIRRQKREWIKFAAACREGEDNSKRNPIAKIHSDCAANQQVTYRISGVGIDQPPYGIFVINQKTGEINITSIVDREVTPFFIIYCRALNSMGQDLERPLELRVRVLDINDNPPVFSMATFAGQIEENSNANTLVMILNATDADEPNNLNSKIAFKIIRQEPSDSPMFIINRNTGEIRTMNNFLDREQYGQYALAVRGSDRDGGADGMSAECECNIKILDVNDNIPYMEQSSYTIEIQENTLNSNLLEIRVIDLDEEFSANWMAVIFFISGNEGNWFEIEMNERTNVGILKVVKPLDYEAMQSLQLSIGVRNKAEFHHSIMSQYKLKASAISVTVLNVIEGPVFRPGSKTYVVTGNMGSNDKVGDFVATDLDTGRPSTTVRYVMGNNPADLLAVDSRTGKLTLKNKVTKEQYNMLGGKYQGTILSIDDNLQRTCTGTININIQSFGNDDRTNTEPNTKITTNTGRQESTSSTNYDTSTTSTDSSQVYSSEPGNGAKDLLSDNVHFGPAG
modifications: bait human Fc-tagged dimer
The molecule B4 yielded a binding score of 1.01.

B5: ADP365 (protein)
chain: MALGSPGLLFLLFSSLRADTQEKEVRAMVGSDVELSCACPEGSRFDLNDVYVYWQTSESKTVVTYHIPQNSSLENVDSRYRNRALMSPAGMLRGDFSLRLFNVTPQDEQKFHCLVLSQSLGFQEVLSVEVTLHVAANFSVPVVSAPHSPSQDELTFTCTSINGYPRPNVYWINKTDNSLLDQALQNDTVFLNMRGLYDVVSVLRIARTPSVNIGCCIENVLLQQNLTVGSQTGNDIGERDKITENPVSTG
modifications: bait human Fc-tagged dimer
As to B5, the binding score came out at 2.12.

B6: ADP156 (protein)
chain: MAILSFLPVLATESDWADCKSPQPWGHMLLWTAVLFLAPVAGTPAAPPKAVLKLEPQWINVLQEDSVTLTCRGTHSPESDSIQWFHNGNLIPTHTQPSYRFKANNNDSGEYTCQTGQTSLSDPVHLTVLSEWLVLQTPHLEFQEGETIVLRCHSWKDKPLVKVTFFQNGKSKKFSRSDPNFSIPQANHSHSGDYHCTGNIGYTLYSSKPVTITVQAPSSSPM
modifications: bait human Fc-tagged dimer
B6 came in with a binding score of 1.12.

B7: ADP375 (protein)
chain: SSKYAPDENCPDQNPRLRNWDPGQDSAKQVVIKEGDMLRLTSDATVHSIVIQDGGLLVFGDNKDGSRNITLRTHYILIQDGGALHIGAEKCRYKSKATITLYGKSDEGESMPTFGKKFIGVEAGGTLELHGARKASWTLLARTLNSSGLPFGSYTFEKDFSRGLNVRVIDQDTAKILESERFDTHEYRNESRRLQEFLRFQDPGRIVAIAVGDSAAKSLLQGTIQMIQERLGSELIQGLGYRQAWALVGVIDGGSTSCNESVRNYENHSSGGKALAQREFYTVDGQKFSVTAYSEWIEGVSLSGFRVEVVDGVKLNLLDDVSSWKPGDQIVVASTDYSMYQAEEFTLLPCSECSHFQVKVKETPQFLHMGEIIDGVDMRAEVGILTRNIVIQGEVEDSCYAENQCQFFDYDTFGGHIMIMKNFTSVHLSYVELKHMGQQQMGRYPVHFHLCGDVDYKGGYRHATFVDGLSIHHSFSRCITVHGTNGLLIKDTIGFDTLGHCFFLEDGIEQRNTLFHNLGLLTKPGTLLPTDRNNSMCTTMRDKVFGNYIPVPATDCMAVSTFWIAHPNNNLINNAAAGSQDAGIWYLFHKEPTGESSGLQLLAKPELTPLGIFYNNRVHSNFKAGLFIDKGVKTTNSSAADPREYLCLDNSARFRPHQDANPEKPRVAALIDRLIAFKNNDNGAWVRGGDIIVQNSAFADNGIGLTFASDGSFPSDEGSSQEVSESLFVGESRNYGFQGGQNKYVGTGGIDQKPRTLPRNRTFPIRGFQIYDGPIHLTRSTFKKYVPTPDRYSSAIGFLMKNSWQITPRNNISLVKFGPHVSLNVFFGKPGPWFEDCEMDGDKNSIFHDIDGSVTGYKDAYVGRMDNYLIRHPSCVNVSKWNAVICSGTYAQVYVQTWSTQNLSMTITRDEYPSNPMVLRGINQKAAFPQYQPVVMLEKGYTIHWNGPAPRTTFLYLVNFNKNDWIRVGLCYPSNTSFQVTFGYLQRQNGSLSKIEEYEPVHSLEELQRKQSERKFYFDSSTGLLFLYLKAKSHRHGHSYCSSQGCERVKIQAATDSKDISNCMAKAYPQYYRKPSVVKRMPAMLTGLCQGCGTRQVVFTSDPHKSYLPVQFQSPDKAETQRGDPSVISVNGTDFTFRSAGVLLLVVDPCSVPFRLTEKTVFPLADVSRIEEYLKTGIPPRSIVLLSTRGEIKQLNISHLLVPLGLAKPAHLYDKGSTIFLGFSGNFKPSWTKLFTSPAGQGLGVLEQFIPLQLDEYGCPRATTVRRRDLELLKQASKAH
modifications: bait human Fc-tagged dimer
On to B7, for which the binding score stood at 0.71.

B8: ADP304 (protein)
chain: MASGWWLWPLVAVCTADFFRDEAERIMRDSPVIDGHNDLPWQLLDMFNNRLQDERANLTTLAGTHTNIPKLRAGFVGGQFWSVYTPCDTQNKDAVRRTLEQMDVVHRMCRMYPETFLYVTSSAGIRQAFREGKVASLIGVEGGHSIDSSLGVLRALYQLGMRYLTLTHSCNTPWADNWLVDTGDSEPQSQGLSPFGQRVVKELNRLGVLIDLAHVSVATMKATLQLSRAPVIFSHSSAYSVCASRRNVPDDVLRLVKQTDSLVMVNFYNNYISCTNKANLSQVADHLDHIKEVAGARAVGFGGDFDGVPRVPEGLEDVSKYPDLIAELLRRNWTEAEVKGALADNLLRVFEAVEQASNLTQAPEEEPIPLDQLGGSCRTHYGYSS
modifications: bait human Fc-tagged dimer
Molecule B8 returned a binding score of 0.718.

B9: ADP282 (protein)
chain: STWVTSEAYSSPSIVLSARGGDGSRIIFDDFREAYYWLRHNTPEDAKVMSWWDYGYQITAMANRTILVDNNTWNNTHISRVGQAMASTEEKAYEIMRELDVSYVLVIFGGLTGYSSDDINKFLWMVRIGGSTDTGKHIKENDYYTPTGEFRVDREGSPVLLNCLMYKMCYYRFGQVYTEAKRPPGFDRVRNAEIGNKDFELDVLEEAYTTEHWLVRIYKVKDLDNRGLSRT
modifications: bait human Fc-tagged dimer
As for B9, the binding score is 0.691.

B10: ADP322 (protein)
chain: MAALGPALLQALWAGWVLTLQPLPPTAFTPNGTYLQHLARDPTSGTLYLGATNFLFQLSPGLQLEATVSTGPVLDSRDCLPPVMPDECPQAQPTNNPNQLLLVSPGALVVCGSVHQGVCEQRRLGQLEQLLLRPERPGDTQYVAANDPAVSTVGLVAQGLAGEPLLFVGRGYTSRGVGGGIPPITTRALWPPDPQAAFSYEETAKLAVGRLSEYSHHFVSAFARGASAYFLFLRRDLQAQSRAFRAYVSRVCLRDQHYYSYVELPLACEGGRYGLIQAAAVATSREVAHGEVLFAAFSSAAPPTVGRPPSAAAGASGASALCAFPLDEVDRLANRTRDACYTREGRAEDGTEVAYIEYDVNSDCAQLPVDTLDAYPCGSDHTPSPMASRVPLEATPILEWPGIQLTAVAVTMEDGHTIAFLGDSQGQLHRVYLGPGSDGHPYSTQSIQQGSAVSRDLTFDGTFEHLYVMTQSTLLKVPVASCAQHLDCASCLAHRDPYCGWCVLLGRCSRRSECSRGQGPEQWLWSFQPELGCLQVAAMSPANISREETREVFLSVPDLPPLWPGESYSCHFGEHQSPALLTGSGVMCPSPDPSEAPVLPRGADYVSVSVELRFGAVVIAKTSLSFYDCVAVTELRPSAQCQACVSSRWGCNWCVWQHLCTHKASCDAGPMVASHQSPLVSPDPPARGGPSPSPPTAPKALATPAPDTLPVEPGAPSTATASDISPGASPSLLSPWGPWAGSGSISSPGSTGSPLHEEPSPPSPQNGPGTAVPAPTDFRPSATPEDLLASPLSPSEVAAVPPADPGPEALHPTVPLDLPPATVPATTFPGAMGSVKPALDWLTREGGELPEADEWTGGDAPAFSTSTLLSGDGDSAELEGPPAPLILPSSLDYQYDTPGLWELEEATLGASSCPCVESVQGSTLMPVHVEREIRLLGRNLHLFQDGPGDNECVMELEGLEVVVEARVECEPPPDTQCHVTCQQHQLSYEALQPELRVGLFLRRAGRLRVDSAEGLHVVLYDCSVGHGDCSRCQTAMPQYGCVWCEGERPRCVTREACGEAEAVATQCPAPLIHSVEPLTGPVDGGTRVTIRGSNLGQHVQDVLGMVTVAGVPCAVDAQEYEVSSSLVCITGASGEEVAGATAVEVPGRGRGVSEHDFAYQDPKVHSIFPARGPRAGGTRLTLNGSKLLTGRLEDIRVVVGDQPCHLLPEQQSEQLRCETSPRPTPATLPVAVWFGATERRLQRGQFKYTLDPNITSAGPTKSFLSGGREICVRGQNLDVVQTPRIRVTVVSRMLQPSQGLGRRRRVVPETACSLGPSCSSQQFEEPCHVNSSQLITCRTPALPGLPEDPWVRVEFILDNLVFDFATLNPTPFSYEADPTLQPLNPEDPTMPFRHKPGSVFSVEGENLDLAMSKEEVVAMIGDGPCVVKTLTRHHLYCEPPVEQPLPRHHALREAPDSLPEFTVQMGNLRFSLGHVQYDGESPGAFPVAAQ
modifications: bait human Fc-tagged dimer
B10 came in with a binding score of 2.59.
